Experimental data as given in patent US20190169308A1 (ALLIGATOR BIOSCIENCE, published 2019).

T1: 5T4 (SPR antigen) (UniProt Q13641 32-355, limits assumed, biotinylated on the MASS-1 platform)
T1 construct: also called biotinylated 5T4
T1 sequence (looked up): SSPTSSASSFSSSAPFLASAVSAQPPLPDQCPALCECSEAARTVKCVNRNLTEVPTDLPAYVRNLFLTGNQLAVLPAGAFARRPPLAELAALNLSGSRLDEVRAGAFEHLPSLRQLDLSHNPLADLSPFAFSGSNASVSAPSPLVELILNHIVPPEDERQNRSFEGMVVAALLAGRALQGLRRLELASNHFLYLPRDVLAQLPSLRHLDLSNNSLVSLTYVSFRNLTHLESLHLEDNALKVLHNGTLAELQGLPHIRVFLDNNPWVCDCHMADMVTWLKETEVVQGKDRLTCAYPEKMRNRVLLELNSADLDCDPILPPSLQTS

T2: cynomolgus 5T4 on transfected CHO cells (Macaca mulatta (cynomolgus), UniProt F7CT46 35-420)
T2 construct: also called cyno5T4; cy5T4
T2 sequence: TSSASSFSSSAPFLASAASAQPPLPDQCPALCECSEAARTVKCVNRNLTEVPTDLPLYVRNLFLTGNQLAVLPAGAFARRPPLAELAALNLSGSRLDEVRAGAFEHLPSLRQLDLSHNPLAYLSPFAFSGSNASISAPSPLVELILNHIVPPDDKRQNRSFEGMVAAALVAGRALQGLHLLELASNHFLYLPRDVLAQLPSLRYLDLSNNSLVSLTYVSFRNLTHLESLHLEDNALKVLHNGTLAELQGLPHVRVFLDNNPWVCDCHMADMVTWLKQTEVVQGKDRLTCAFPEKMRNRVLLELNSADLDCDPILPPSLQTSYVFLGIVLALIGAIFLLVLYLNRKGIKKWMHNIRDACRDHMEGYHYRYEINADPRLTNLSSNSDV

T3: mouse 5T4 on transfected cells (mouse, UniProt Q9Z0L0 32-426)
T3 construct: whole, on cells; also called murine 5T4
T3 sequence (looked up): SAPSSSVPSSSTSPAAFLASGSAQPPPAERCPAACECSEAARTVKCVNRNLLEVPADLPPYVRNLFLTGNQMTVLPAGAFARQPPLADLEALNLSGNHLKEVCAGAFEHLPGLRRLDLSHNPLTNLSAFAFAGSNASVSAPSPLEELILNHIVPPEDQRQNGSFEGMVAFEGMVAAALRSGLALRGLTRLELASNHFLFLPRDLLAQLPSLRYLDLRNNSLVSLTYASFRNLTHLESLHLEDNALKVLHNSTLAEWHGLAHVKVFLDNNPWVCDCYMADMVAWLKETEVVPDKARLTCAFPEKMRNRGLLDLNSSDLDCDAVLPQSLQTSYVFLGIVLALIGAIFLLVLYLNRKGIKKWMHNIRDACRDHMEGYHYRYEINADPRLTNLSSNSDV


Key:
[1] = biological target: T4, human/mouse 5T4 chimera E5; test: flow cytometry, cells with human/mouse 5T4 chimera
T4 construct: on transfected CHO cells
Experimental: (§1) Epitope mapping was performed by investigation of loss of binding by the antibodies using a panel of human/mouse chimeric 5T4 constructs by flow cytometry. […] Two strategies were used for the epitope mapping as illustrated in FIG. 5. In one approach, seven human/mouse 5T4 chimeras were constructed based on dividing 5T4 into seven different domains (FIG. 5). By replacing each domain with the corresponding mouse sequence seven human/mouse 7 5T4 human/mouse chimeras were generated. The chimeras were generated using the human protein 5T4 sequence NP_006661.1 (reference mRNA sequence NM_006670.4) and the corresponding mouse sequence NP_035757.2 (reference mRNA sequence NM_011627.4). The human/mouse chimeric DNA constructs, as well as human and mouse wild-type 5T4, were cloned into pcDNA3.1 expression vectors. […] As controls human 5T4 and mouse 5T4-transfected cells were used. For flow cytometric analysis, cells were stained with different 5T4 antibodies diluted in FACS buffer (PBS, 0.5% BSA). […] Samples were analysed by FACSverse (BD Biosciences, Heidelberg, Germany) and % positive cells were determined. To compensate for variations in % 5T4 positive cells in the various transfected populations, binding levels were normalized within each chimera by dividing % positive cells for each clone with % positive cells for the clones resulting in the highest % positive cells (% pos cellscloneX/% positive cellsₘₐₓ). A normalized value ≤0.75 was defined as mAb binding being dependent on the replaced region, whereas a normalized value ≤0.25 was defined as complete dependence.

[2] = biological target: T5, human/mouse 5T4 chimera E4; test: flow cytometry, cells with human/mouse 5T4 chimera
T5 construct: on transfected CHO cells
Experimental: as §1

[3] = biological target: T6, human/mouse 5T4 chimera E6; test: flow cytometry, cells with human/mouse 5T4 chimera
T6 construct: on transfected CHO cells
Experimental: as §1

[4] = biological target: T7, human/mouse 5T4 chimera E3; test: flow cytometry, cells with human/mouse 5T4 chimera
T7 construct: on transfected CHO cells
Experimental: as §1

[5] = biological target: T8, human/mouse 5T4 chimera E7; test: flow cytometry, cells with human/mouse 5T4 chimera
T8 construct: on transfected CHO cells
Experimental: as §1

[6] = biological target: T9, human/mouse 5T4 chimera E1; test: flow cytometry, cells with human/mouse 5T4 chimera
T9 construct: on transfected CHO cells
Experimental: as §1

[7] = biological target: T10, human/mouse 5T4 chimera E2; test: flow cytometry, cells with human/mouse 5T4 chimera
T10 construct: on transfected CHO cells
Experimental: as §1

5T4 (SPR antigen) [8] = biological target: T1, 5T4 (SPR antigen); test: SPR MASS-1, biotinylated 5T4 on streptavidin chip, mAb injected (bivalent)
Experimental: (§2) Binding kinetics of the 5T4-specific mAbs have been studied using two different SPR-based platforms, the Biacore 3000 (GE Healthcare) and the MASS-1 platform (Sierra Sensors). Briefly, 5T4 was captured at the sensor chip surface either via direct amine coupling (Biacore platform) or using a streptavidin coated chip and biotinylated 5T4 (MASS-1 platform). The different 5T4-specific mAbs were then injected over the chip in increasing concentrations and the association and dissociation rates studied in real time. A 1:1 Langmuir model was used for curve fitting.

[9] = biological target: T2, cynomolgus 5T4 on transfected CHO cells; test: flow cytometry, 5T4-transfected CHO cells
Experimental: The potency of 5T4 antibodies in binding to cynomolgus 5T4 was determined by flow cytometry. CHO cells were stably transfected with […] (cynomolgus) 5T4. […] Samples were analysed either on a FACSCalibur or a FACSverse (BD Biosciences, Heidelberg, Germany) and mean fluorescence intensity (MFI) determined. […] To compare the EC50 values between human and cynomolgus 5T4, the cy5T4/hu5T4 ratio was calculated from the experiment with the full dose-response.

[10] = biological target: T3, mouse 5T4 on transfected cells; test: flow cytometry, mouse 5T4-transfected cells
5T4 (SPR antigen) [11] = biological target: T1, 5T4 (SPR antigen); test: SPR Biacore 3000, amine-coupled 5T4, mAb injected (bivalent)
Experimental: as §2

normalized % positive cells [1]	normalized % positive cells [2]	normalized % positive cells [3]	normalized % positive cells [4]	normalized % positive cells [5]	normalized % positive cells [6]	normalized % positive cells [7]	koff (5T4 (SPR antigen) [8]) [s⁻¹]	kon (5T4 (SPR antigen) [8]) [M⁻¹ s⁻¹]	Ratio EC50cyno5T4/h5T4 [9]	binding result [10]	Kd (5T4 (SPR antigen) [11]) [nM]	koff (5T4 (SPR antigen) [11]) [s⁻¹]	kon (5T4 (SPR antigen) [11]) [M⁻¹ s⁻¹]	Binder
0.89	0.69	0.89	0.9	0.96	0.99	0.02	0.00019	510000	0.9	no binding	0.2	0.0001	500000	1210/1211 (antibody, V domains shown) VH: not shown VL: DIQMTQSPSSLSASVGDRVTITCRASQSISSYLNWYQQKPGKAPKLLIYAASSLQSGVPSRFSGSGSGTDFTLTISSLQPEDFATYYCQQTYGYLHTFGQGTKLEIK
0.9	0.52	0.94	0.25	0.94	0.96	0.74	0.00013	1.4e+06	3	no binding	2.3	0.00028	130000	1206/1207 (antibody, V domains shown) VH: EVQLLESGGGLVQPGGSLRLSCAASGFTFSGSSMSWVRQAPGKGLEWVSSIYYSGSGTYYADSVKGRFTISRDNSKNTLYLQMNSLRAEDTAVYYCARYGRNVHPYNLDYWGQGTLVTVSS VL: DIQMTQSPSSLSASVGDRVTITCRASQSISSYLNWYQQKPGKAPKLLIYAASSLQSGVPSRFSGSGSGTDFTLTISSLQPEDFATYYCQQGYYYLPTFGQGTKLEIK
